Activity data for one molecule are collected here from patent publication US20200131489, “ENGINEERED MEGANUCLEASES SPECIFIC FOR RECOGNITION SEQUENCES IN THE PCSK9 GENE” (Precision BioSciences, Inc., published 2020).

Test in all cases: cell_activity; HEK293 mRNA electroporation, 48 h, mock 0.40%
What all share (details): tags: N-terminal SV40 NLS

One series addresses T1, PCS 7-8L.262 (synthetic (I-CreI derived, …)).
T1 chain: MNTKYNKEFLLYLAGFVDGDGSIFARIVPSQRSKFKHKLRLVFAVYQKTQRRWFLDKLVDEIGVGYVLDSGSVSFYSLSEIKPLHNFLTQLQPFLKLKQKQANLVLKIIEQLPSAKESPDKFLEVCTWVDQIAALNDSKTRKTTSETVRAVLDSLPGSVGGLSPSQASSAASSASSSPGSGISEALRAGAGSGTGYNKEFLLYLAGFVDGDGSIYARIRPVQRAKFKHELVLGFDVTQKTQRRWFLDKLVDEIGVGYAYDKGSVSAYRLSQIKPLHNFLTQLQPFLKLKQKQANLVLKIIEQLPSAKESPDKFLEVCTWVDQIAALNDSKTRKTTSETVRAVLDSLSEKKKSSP
On the procedure: (§1) In order to directly observe insertions or deletions at the intended PCS 7-8 meganuclease target site, a deep sequencing protocol was used. 2e⁶ HEK 293 cells were electroporated with 5 ug of PCS 7-8 meganuclease mRNA using a BioRad Gene Pulser Xcell according to the manufacturer's instructions. A mock electroporation was also performed with no mRNA. At 48 hours post-transfection, genomic DNA (gDNA) was harvested from cells. The PCS 7-8 locus was amplified by PCR using primers that flank the PCS 7-8 recognition sequence. This amplicon was run on an agarose gel for visual confirmation, extracted using a Macherey-Nagel Nucleospin Gel and PCR Clean-up kit, and sequencing libraries were prepared using the NEBNext Ultra II DNA Library Kit for Illumina from New England Biolabs. The paired-end sequencing libraries were read on an Illumina Miseq DNA sequencer. Sequencing data was analyzed using custom scripts. Reads with start or end points not within 25 bp of the full-length amplicon were removed. The percent of reads with indels was calculated by dividing the number of full-length reads having an indel that incorporated at least one of the middle 8 bp of the recognition sequence by the total number of full-length reads.

The target in a further series is T2, PCS 7-8L.209 (synthetic (I-CreI derived, …)).
T2 chain: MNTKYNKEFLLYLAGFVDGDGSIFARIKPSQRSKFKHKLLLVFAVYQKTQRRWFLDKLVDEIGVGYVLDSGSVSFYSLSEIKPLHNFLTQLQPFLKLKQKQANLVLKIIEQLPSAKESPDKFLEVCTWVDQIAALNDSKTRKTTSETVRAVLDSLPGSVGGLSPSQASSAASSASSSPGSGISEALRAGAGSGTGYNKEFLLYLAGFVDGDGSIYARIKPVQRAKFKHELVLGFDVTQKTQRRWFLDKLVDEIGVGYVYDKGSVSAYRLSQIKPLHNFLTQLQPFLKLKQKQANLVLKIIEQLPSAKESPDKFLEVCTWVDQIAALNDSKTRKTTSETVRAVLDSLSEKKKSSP
As for the experimental part:
as §1

Another series addresses T3, PCS 7-8L.261 (synthetic (I-CreI derived, …)).
T3 chain: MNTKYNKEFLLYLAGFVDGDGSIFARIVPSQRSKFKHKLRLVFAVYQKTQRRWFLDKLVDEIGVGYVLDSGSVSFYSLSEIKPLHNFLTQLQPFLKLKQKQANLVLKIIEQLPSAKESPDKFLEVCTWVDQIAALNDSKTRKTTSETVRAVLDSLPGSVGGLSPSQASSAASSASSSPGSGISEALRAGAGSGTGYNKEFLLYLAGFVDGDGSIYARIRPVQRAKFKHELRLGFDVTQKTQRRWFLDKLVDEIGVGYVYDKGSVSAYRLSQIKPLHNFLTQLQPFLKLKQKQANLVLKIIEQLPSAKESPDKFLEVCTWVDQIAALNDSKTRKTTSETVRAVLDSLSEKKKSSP
As for the experimental part:
as §1

The target of the next series is T4, PCS 7-8L.268 (synthetic (I-CreI derived, …)).
T4 chain: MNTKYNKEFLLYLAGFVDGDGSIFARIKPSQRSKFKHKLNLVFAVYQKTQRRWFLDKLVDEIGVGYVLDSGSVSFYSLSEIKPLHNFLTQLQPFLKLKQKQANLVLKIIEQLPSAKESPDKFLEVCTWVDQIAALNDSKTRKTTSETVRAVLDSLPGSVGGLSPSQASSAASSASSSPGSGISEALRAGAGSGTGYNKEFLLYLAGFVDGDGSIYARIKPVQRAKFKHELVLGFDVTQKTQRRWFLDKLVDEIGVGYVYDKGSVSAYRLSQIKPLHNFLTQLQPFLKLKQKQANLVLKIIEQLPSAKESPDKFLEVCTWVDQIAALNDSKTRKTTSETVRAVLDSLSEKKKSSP
On the procedure:
as §1

A further series concerns the target T5, PCS 7-8L.204 (synthetic (I-CreI derived, …)).
T5 chain: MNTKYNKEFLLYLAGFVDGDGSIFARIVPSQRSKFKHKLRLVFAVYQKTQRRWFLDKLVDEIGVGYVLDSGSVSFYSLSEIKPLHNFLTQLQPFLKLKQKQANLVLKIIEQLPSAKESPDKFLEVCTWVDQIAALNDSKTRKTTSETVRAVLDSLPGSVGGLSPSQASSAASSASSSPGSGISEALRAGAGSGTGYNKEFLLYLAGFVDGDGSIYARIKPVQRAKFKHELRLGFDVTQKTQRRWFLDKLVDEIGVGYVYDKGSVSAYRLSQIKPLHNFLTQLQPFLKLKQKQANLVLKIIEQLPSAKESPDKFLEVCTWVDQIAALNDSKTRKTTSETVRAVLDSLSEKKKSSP
As for the experimental part:
as §1

B1: PCS 7-8 recognition sequence (dsDNA)
DNA 1: TGGACCTCTTTGCCCCAGGGGA
DNA 2: TCCCCTGGGGCAAAGAGGTCCA
In the case of B1, the activity with PCS 7-8L.262 was 53.5 % indels; with PCS 7-8L.209, 53.2 % indels; with PCS 7-8L.261 it was 55.4 % indels; in the series with PCS 7-8L.268, 52.5 % indels; with PCS 7-8L.204, 58.4 % indels.
